Assay results: paper PMC10868440, “Structural characterization of the Sel1‐like repeat protein LceB from Legionella pneumophila” (Protein Science : A Publication of the Protein Society, 2024)
Values joined by “and” are separate entries in the source; they are usually repeats but may differ in a detail not shown here. Identical values can stand only once.

How the values were obtained:
[1] = molecular target: full-length 6His-LceB (Legionella pneumophila Philadelphia-1) (UniProt Q5ZVT4); test: mass photometry
mass photometry = molecular target: the molecule itself; test: mass photometry

Molecule	stoichiometry N [1]	stoichiometry N (mass photometry)
full-length 6His-LceB (from UniProt Q5ZVT4 1-376) (natural protein)	3 and 5	
6His-LceB (22-366) (domain or fragment, also called Lpg1356; truncated LceB crystallization construct; not shown: His6, N-terminal, kept) VGFAAFENGDYTTAYPHLMQAAKEGNEEAMYLLGRMYQYGYGVTTNYEEARNWYQKAADKNNALAQLSLGFMYDTGKGVSQDFTEAFKWYMKAAEQGNPIAQRNIGLMYATGDGVAASDDKAFNWFKKAAEQGYSKAQVNLGYQYMMGKGTPKDVKKAFEWYQKAAEQGDEKGEYSLGLLYTGQEGGIGADDKAAFYWFSQAANHGHVNAQTYLAYYYLKGYGVDADPVKAAYWYQSAAEKGQPEAQAQLGQLLLTGTGVDKDYQQAAYWFGKSAHQGNPIGQAKLGYMYLAGLGVNKSLVKAYAWLKIAAENKNEEAAKQLKSLEAKLTEPEKLEAEKMIKDLG		2
LceB no HT (22-366) (domain or fragment, also called LceB no His-tag; digested LceB) VGFAAFENGDYTTAYPHLMQAAKEGNEEAMYLLGRMYQYGYGVTTNYEEARNWYQKAADKNNALAQLSLGFMYDTGKGVSQDFTEAFKWYMKAAEQGNPIAQRNIGLMYATGDGVAASDDKAFNWFKKAAEQGYSKAQVNLGYQYMMGKGTPKDVKKAFEWYQKAAEQGDEKGEYSLGLLYTGQEGGIGADDKAAFYWFSQAANHGHVNAQTYLAYYYLKGYGVDADPVKAAYWYQSAAEKGQPEAQAQLGQLLLTGTGVDKDYQQAAYWFGKSAHQGNPIGQAKLGYMYLAGLGVNKSLVKAYAWLKIAAENKNEEAAKQLKSLEAKLTEPEKLEAEKMIKDLG		2
